± gives the standard error. For part of these data: Fewer inactive variants are shown than the library holds.
B1: glmS ribozyme (parent)
chain: AUAAAAGCGCCAGAACUACAGAAAUGUAGUUGACGAGGAGGAGGUUUAUCGAAUUUUCGGCGGAUGCCUCCAAA

Assays:
Details in all cases: with glucosamine-6-phosphate
[1] = variants of: B1; experiment: kcat; higher = faster cleavage; RNA array
Summary of the method: (§1)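 The measurements used barcoded ribozyme variants on sequenced MiSeq chips, transcribed in situ by E. coli RNA polymerase and tracked at 37 °C with a hybridised Cy3 probe. Glucosamine-6-phosphate, 40 μM to 10 mM in HEPES/KCl/Mg(OAc)2 buffer, was flowed in while tiles were imaged over ~14 h. Baseline-normalised signals, also normalised to non-cleaving reference variants, gave per-tile medians that were fit to one- or two-exponential decays for kobs. kcat and KM resulted from weighted Michaelis–Menten fits across concentrations.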

[2] = variants of: B1; experiment: KM; higher = weaker cofactor use; RNA array
Summary of the method: as §1

[3] = variants of: B1; experiment: self-cleavage kobs at 40 uM GlcN6P; higher = faster cleavage; RNA array
Summary of the method: as §1

[4] = variants of: B1; experiment: self-cleavage kobs at 640 uM GlcN6P; higher = faster cleavage; RNA array
Summary of the method: as §1

[5] = variants of: B1; experiment: self-cleavage kobs at 2500 uM GlcN6P; higher = faster cleavage; RNA array
Summary of the method: as §1

[6] = variants of: B1; experiment: self-cleavage kobs at 10000 uM GlcN6P; higher = faster cleavage; RNA array
Summary of the method: as §1

[7] = variants of: B1; experiment: self-cleavage kobs at 160 uM GlcN6P; higher = faster cleavage; RNA array
Summary of the method: as §1

Row | Variant | kcat [1] [s⁻¹] | KM [2] [µM] | self-cleavage kobs at 40 uM GlcN6P [3] [s⁻¹] | self-cleavage kobs at 640 uM GlcN6P [4] [s⁻¹] | self-cleavage kobs at 2500 uM GlcN6P [5] [s⁻¹] | self-cleavage kobs at 10000 uM GlcN6P [6] [s⁻¹] | self-cleavage kobs at 160 uM GlcN6P [7] [s⁻¹]
1 | C16U G29A G66A | 0.00966 ± 0.0019 | 597 ± 190 | 0.000592 ± 0.00015 | 0.00534 ± 0.001 | 0.00654 ± 0.0021 | 0.0139 ± 0.0063 | –
2 | C16G U47G C50G C68G | 1.23e-05 ± 1.9e-06 | – | – | – | – | – | –
3 | C16G G37A | 0.000832 ± 0.00041 | – | – | 3.76e-05 ± 1.2e-05 | 0.000292 ± 6.6e-05 | 0.000396 ± 4.9e-05 | –
4 | C16U C50G A53U U55A | 3.66e-05 ± 1e-05 | – | – | 4.65e-05 ± 2.2e-05 | – | – | –
5 | C16U C58A C67G | 0.000119 ± 2.4e-06 | 283 ± 23 | – | 8.08e-05 ± 1.6e-05 | 0.000106 ± 2e-05 | 0.000118 ± 2.5e-05 | 4.51e-05 ± 1.9e-05
6 | C16G C68U | 0.000168 ± 6e-06 | 778 ± 79 | – | 7.49e-05 ± 1.2e-05 | 0.000125 ± 1.6e-05 | 0.00016 ± 2.3e-05 | 3.33e-05 ± 1.5e-05
7 | C16G C68G | 1.82e-05 ± 5.5e-06 | – | – | – | – | – | –
8 | C16G C68A | 2.15e-05 ± 6.1e-06 | – | – | – | – | – | –
9 | C16U G63A | < 1e-05 | – | < 1e-05 | – | < 1e-05 | < 1e-05 | –
10 | C16U C58G | 0.000176 ± 1.3e-05 | 1730 ± 350 | – | 4.29e-05 ± 9.1e-06 | 0.000117 ± 1.6e-05 | 0.000146 ± 1.3e-05 | –
11 | C16A U65G | 0.000487 ± 7.9e-05 | 3310 ± 1000 | – | 8.78e-05 ± 1.8e-05 | 0.000156 ± 5.5e-05 | 0.000382 ± 5.9e-05 | –
12 | C16G G66A | 0.00183 ± 0.0004 | 1140 ± 380 | 7.41e-05 ± 1.1e-05 | 0.000593 ± 8.9e-05 | 0.00111 ± 0.00019 | 0.00218 ± 0.00038 | 0.000199 ± 5.6e-05
13 | C16U A42U A64G | 0.000175 ± 4.3e-05 | – | – | – | 7.15e-05 ± 1.6e-05 | 0.000122 ± 2.6e-05 | –
14 | C16U G40U | 0.00189 ± 0.00089 | – | 0.000134 ± 2e-05 | 0.00095 ± 0.00016 | 0.00106 ± 0.00024 | 0.00317 ± 0.0006 | 0.000209 ± 5e-05
15 | C16U A39G | 0.0255 ± 0.0088 | 866 ± 400 | 0.00133 ± 0.00019 | 0.00828 ± 0.0019 | 0.0177 ± 0.0063 | 0.0356 ± 0.0085 | 0.00365 ± 0.00075
16 | C16U C68A | 3.77e-05 ± 5.5e-06 | – | – | 4.99e-05 ± 1.5e-05 | 2.73e-05 ± 1.3e-05 | 3.74e-05 ± 7.6e-06 | –
17 | C16U C68U | 0.0026 ± 0.0006 | 1440 ± 460 | 8.07e-05 ± 5.9e-06 | 0.000649 ± 5.6e-05 | 0.00247 ± 0.00034 | 0.00235 ± 0.00021 | 0.000263 ± 2.9e-05
